T1: FcγRIIa H (human, UniProt P12318 34-217)
T1 construct: extracellular domain; also called FcγRIIa type H; 2aH
T1 sequence (looked up): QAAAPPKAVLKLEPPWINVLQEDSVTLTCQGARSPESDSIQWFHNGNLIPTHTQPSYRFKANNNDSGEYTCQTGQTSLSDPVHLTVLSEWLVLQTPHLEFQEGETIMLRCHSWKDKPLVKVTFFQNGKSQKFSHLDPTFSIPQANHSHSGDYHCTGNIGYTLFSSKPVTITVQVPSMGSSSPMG

T2: FcγRIIb (human, UniProt P31994 43-217)
T2 construct: extracellular domain; also called 2b; FcgRIIb
T2 sequence (looked up): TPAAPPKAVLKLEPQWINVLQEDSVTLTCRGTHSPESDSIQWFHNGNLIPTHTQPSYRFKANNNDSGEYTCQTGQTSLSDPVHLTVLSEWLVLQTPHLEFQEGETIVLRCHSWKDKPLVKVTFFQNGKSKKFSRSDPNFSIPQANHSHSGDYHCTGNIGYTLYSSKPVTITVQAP

B1: GpH7-A5/GpH7-B3 variant D270_18N/GpL16-k0 (antibody, human IgG1, kappa)
heavy 1: not shown
heavy 2: not shown
light: DIVMTQSPLSLPVTPGEPASISCQASESLVHSNRNTYLHWYLQKPGQSPQLLIYKVSNRFSGVPDRFSGSGSGTDFTLKISRVEAEDVGVYYCSQNTHVPPTFGQGTKVEIERTVAAPSVFIFPPSDEQLKSGTASVVCLLNNFYPREAKVQWKVDNALQSGNSQESVTEQDSKDSTYSLSSTLTLSKADYEKHKVYACEVTHQGLSSPVTKSFNRGEC
notes: Heterodimerized anti-glypican-3 IgG1 (He Ab); mutation in the B3 H chain only; also called He Ab
B2: GpH7-A5/GpH7-B3 variant E269_18N/GpL16-k0 (antibody, human IgG1, kappa)
heavy 1: not shown
heavy 2: not shown
light: B1 light
notes: as for B1
B3: GpH7-A5/GpH7-B3 variant D270_19Q/GpL16-k0 (antibody, human IgG1, kappa)
heavy 1: not shown
heavy 2: not shown
light: B1 light
notes: as for B1
B4: GpH7-A5/GpH7-B3 variant Q295_11K/GpL16-k0 (antibody, human IgG1, kappa)
heavy 1: not shown
heavy 2: not shown
light: B1 light
notes: as for B1
B5: GpH7-A5/GpH7-B3 variant E269_14T/GpL16-k0 (antibody, human IgG1, kappa)
heavy 1: not shown
heavy 2: not shown
light: B1 light
notes: as for B1
B6: GpH7-A5/GpH7-B3 variant E269_03V/GpL16-k0 (antibody, human IgG1, kappa)
heavy 1: not shown
heavy 2: not shown
light: B1 light
notes: as for B1
B7: GpH7-A5/GpH7-B3 variant Q295_13S/GpL16-k0 (antibody, human IgG1, kappa)
heavy 1: not shown
heavy 2: not shown
light: B1 light
notes: as for B1
B8: GpH7-A5/GpH7-B3 variant S298_10E/GpL16-k0 (antibody, human IgG1, kappa)
heavy 1: not shown
heavy 2: not shown
light: B1 light
notes: as for B1
B9: GpH7-A5/GpH7-B3 variant S298_07I/GpL16-k0 (antibody, human IgG1, kappa)
heavy 1: not shown
heavy 2: not shown
light: B1 light
notes: as for B1
B10: GpH7-A5/GpH7-B3 variant D270_20W/GpL16-k0 (antibody, human IgG1, kappa)
heavy 1: not shown
heavy 2: not shown
light: B1 light
notes: as for B1
B11: GpH7-A5/GpH7-B3 variant S298_18N/GpL16-k0 (antibody, human IgG1, kappa)
heavy 1: not shown
heavy 2: not shown
light: B1 light
notes: as for B1
B12: GpH7-A5/GpH7-B3 variant P271_20W/GpL16-k0 (antibody, human IgG1, kappa)
heavy 1: not shown
heavy 2: not shown
light: B1 light
notes: as for B1
B13: GpH7-A5/GpH7-B3 variant P271_15Y/GpL16-k0 (antibody, human IgG1, kappa)
heavy 1: not shown
heavy 2: not shown
light: B1 light
notes: as for B1
B14: GpH7-A5/GpH7-B3 variant Q295_03V/GpL16-k0 (antibody, human IgG1, kappa)
heavy 1: not shown
heavy 2: not shown
light: B1 light
notes: as for B1
B15: GpH7-A5/GpH7-B3 variant E269_13S/GpL16-k0 (antibody, human IgG1, kappa)
heavy 1: not shown
heavy 2: not shown
light: B1 light
notes: as for B1
B16: GpH7-A5/GpH7-B3 variant E269_02A/GpL16-k0 (antibody, human IgG1, kappa)
heavy 1: not shown
heavy 2: not shown
light: B1 light
notes: as for B1
B17: GpH7-A5/GpH7-B3 variant E269_04F/GpL16-k0 (antibody, human IgG1, kappa)
heavy 1: not shown
heavy 2: not shown
light: B1 light
notes: as for B1
B18: GpH7-A5/GpH7-B3 variant E269_06M/GpL16-k0 (antibody, human IgG1, kappa)
heavy 1: not shown
heavy 2: not shown
light: B1 light
notes: as for B1
B19: GpH7-A5/GpH7-B3 variant Q295_20W/GpL16-k0 (antibody, human IgG1, kappa)
heavy 1: not shown
heavy 2: not shown
light: B1 light
notes: as for B1
B20: GpH7-A5/GpH7-B3 variant E269_20W/GpL16-k0 (antibody, human IgG1, kappa)
heavy 1: not shown
heavy 2: not shown
light: B1 light
notes: as for B1
B21: GpH7-A5/GpH7-B3 variant E269_07I/GpL16-k0 (antibody, human IgG1, kappa)
heavy 1: not shown
heavy 2: not shown
light: B1 light
notes: as for B1
B22: GpH7-A5/GpH7-B3 variant E269_16H/GpL16-k0 (antibody, human IgG1, kappa)
heavy 1: not shown
heavy 2: not shown
light: B1 light
notes: as for B1
B23: GpH7-A5/GpH7-B3 variant S298_14T/GpL16-k0 (antibody, human IgG1, kappa)
heavy 1: not shown
heavy 2: not shown
light: B1 light
notes: as for B1
B24: GpH7-A5/GpH7-B3 variant E269_11K/GpL16-k0 (antibody, human IgG1, kappa)
heavy 1: not shown
heavy 2: not shown
light: B1 light
notes: as for B1
B25: GpH7-A5/GpH7-B3 variant Q295_07I/GpL16-k0 (antibody, human IgG1, kappa)
heavy 1: not shown
heavy 2: not shown
light: B1 light
notes: as for B1
B26: GpH7-A5/GpH7-B3 variant Q295_05P/GpL16-k0 (antibody, human IgG1, kappa)
heavy 1: not shown
heavy 2: not shown
light: B1 light
notes: as for B1
B27: GpH7-A5/GpH7-B3 variant E269_15Y/GpL16-k0 (antibody, human IgG1, kappa)
heavy 1: not shown
heavy 2: not shown
light: B1 light
notes: as for B1
B28: GpH7-A5/GpH7-B3 variant S298_16H/GpL16-k0 (antibody, human IgG1, kappa)
heavy 1: not shown
heavy 2: not shown
light: B1 light
notes: as for B1
B29: GpH7-A5/GpH7-B3 variant Q295_12R/GpL16-k0 (antibody, human IgG1, kappa)
heavy 1: not shown
heavy 2: not shown
light: B1 light
notes: as for B1
B30: GpH7-A5/GpH7-B3 variant E269_19Q/GpL16-k0 (antibody, human IgG1, kappa)
heavy 1: not shown
heavy 2: not shown
light: B1 light
notes: as for B1
B31: GpH7-A5/GpH7-B3 variant E269_12R/GpL16-k0 (antibody, human IgG1, kappa)
heavy 1: not shown
heavy 2: not shown
light: B1 light
notes: as for B1
B32: GpH7-A5/GpH7-B3 variant E269_08L/GpL16-k0 (antibody, human IgG1, kappa)
heavy 1: not shown
heavy 2: not shown
light: B1 light
notes: as for B1
B33: GpH7-A5/GpH7-B3 variant S298_03V/GpL16-k0 (antibody, human IgG1, kappa)
heavy 1: not shown
heavy 2: not shown
light: B1 light
notes: as for B1
B34: GpH7-A5/GpH7-B3 variant Q295_16H/GpL16-k0 (antibody, human IgG1, kappa)
heavy 1: not shown
heavy 2: not shown
light: B1 light
notes: as for B1

Key:
[1] = target: T1, FcγRIIa H; assay: ratio of He/Con_2aH to He/Con_2b (FcγRIIb); SPR
[2] = target: T1, FcγRIIa H; assay: SPR (Biacore), captured antibody, FcγR as analyte; GpH7-A5/GpH7-B3/GpL16-k0 = 100
Description: (§1) The heterodimerized antibodies He Abs in which one of the H chains was introduced with an alteration were assayed for their binding activities to each activating FcγR and inhibitory FcγR according to the method described in Example 4. […] The activating FcγRs in FIGS. 26, 27, 28, and 29 are FcγRIa, FcγRIIa (R), FcγRIIa (H), and FcγRIIIa, respectively.
(§2) Analysis of interaction between objective antibody and the FcγR was carried out using Biacore T100 (GE Healthcare). HBS-EP+ (GE Healthcare) was used as the running buffer, and the measurement temperature was set to 25° C. Chips produced by immobilizing the antigen peptide by the amine coupling method to a Series S Sencor Chip CM5 (GE Healthcare), or alternatively, chips produced by allowing preliminarily biotinylated antigen peptides to interact with and immobilize onto a Series S Sensor Chip SA (certified) (GE Healthcare) were used. Antibodies of interest were captured onto an antigen peptide-immobilized chip, and allowed to interact to each FcγR diluted with running buffer. To regenerate and repeatedly use the chip, the antibodies captured on the chip were washed off by reacting 10 mM glycine-HCl, pH 1.5.

[3] = target: T2, FcγRIIb; assay: as above
Description: as §1, §2

| Binder | He_2aH/2b (IIaH/IIb ratio) [1] | He/Con_2aH (relative binding) [2] [%] | He/Con_2b (relative binding) [3] [%] |
| --- | --- | --- | --- |
| B1 | 1.55 | 62.5 | 40.3 |
| B2 | 1.44 | 64.4 | 44.8 |
| B3 | 1.77 | 85 | 48 |
| B4 | 1.27 | 89.4 | 70.4 |
| B5 | 1.37 | 69.6 | 50.6 |
| B6 | 1.49 | 67.5 | 45.1 |
| B7 | 1.22 | 69.4 | 56.9 |
| B8 | 1.22 | 58 | 47.6 |
| B9 | 1.23 | 86.9 | 70.6 |
| B10 | 1.74 | 60.2 | 34.7 |
| B11 | 1.28 | 61.6 | 48.1 |
| B12 | 1.33 | 77.4 | 58.1 |
| B13 | 1.24 | 64.6 | 52.3 |
| B14 | 1.22 | 92 | 75.7 |
| B15 | 1.46 | 70 | 47.8 |
| B16 | 1.56 | 77.8 | 49.9 |
| B17 | 1.52 | 68.5 | 45 |

| Binder | He_2aH/2b (IIaH/IIb ratio) [1] | He/Con_2aH (relative binding) [2] [%] | He/Con_2b (relative binding) [3] [%] |
| --- | --- | --- | --- |
| B18 | 1.58 | 73.6 | 46.7 |
| B19 | 1.25 | 55.6 | 44.4 |
| B20 | 1.43 | 60.9 | 42.5 |
| B21 | 1.52 | 66.6 | 43.9 |
| B22 | 1.53 | 59 | 38.5 |
| B23 | 1.26 | 98.5 | 77.9 |
| B24 | 2.87 | 51.1 | 17.8 |
| B25 | 1.21 | 102 | 84.3 |
| B26 | 1.53 | 103 | 67.5 |
| B27 | 1.57 | 70.4 | 44.7 |
| B28 | 1.29 | 82.1 | 63.5 |
| B29 | 1.29 | 84.1 | 65.2 |
| B30 | 1.81 | 80.2 | 44.3 |
| B31 | 1.86 | 46.8 | 25.2 |
| B32 | 1.57 | 67.4 | 42.9 |
| B33 | 1.32 | 85.1 | 64.5 |
| B34 | 1.25 | 78.6 | 62.7 |
